This assay addresses RGA5 HMA domain (rice (Oryza sativa)) (UniProt F7J0N2). Briefly: SPR; Biacore […]) or 50 to 0 µM ([…]; HBS-EP+ buffer; 1:1 binding model, kinetic fit.
UniProt F7J0N2, sequence (F7J0N2 997-1066): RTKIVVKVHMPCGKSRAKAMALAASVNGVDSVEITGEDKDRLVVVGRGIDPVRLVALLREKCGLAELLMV

One may read the Kd as the equilibrium constant for the complex coming apart. Substance “AVR-Pia (purified) (from UniProt B9WZW9 1-85) (natural protein)” had a Kd of 26.8 µM.

(Values after PMC10533329.)
